Experiments:
Smc3(R1222C) = molecular target: T1, Smc3(R1222C) (S. cerevisiae, UniProt P47037 1-1230, R1222C); assay: cross-linking
T1 sequence (looked up): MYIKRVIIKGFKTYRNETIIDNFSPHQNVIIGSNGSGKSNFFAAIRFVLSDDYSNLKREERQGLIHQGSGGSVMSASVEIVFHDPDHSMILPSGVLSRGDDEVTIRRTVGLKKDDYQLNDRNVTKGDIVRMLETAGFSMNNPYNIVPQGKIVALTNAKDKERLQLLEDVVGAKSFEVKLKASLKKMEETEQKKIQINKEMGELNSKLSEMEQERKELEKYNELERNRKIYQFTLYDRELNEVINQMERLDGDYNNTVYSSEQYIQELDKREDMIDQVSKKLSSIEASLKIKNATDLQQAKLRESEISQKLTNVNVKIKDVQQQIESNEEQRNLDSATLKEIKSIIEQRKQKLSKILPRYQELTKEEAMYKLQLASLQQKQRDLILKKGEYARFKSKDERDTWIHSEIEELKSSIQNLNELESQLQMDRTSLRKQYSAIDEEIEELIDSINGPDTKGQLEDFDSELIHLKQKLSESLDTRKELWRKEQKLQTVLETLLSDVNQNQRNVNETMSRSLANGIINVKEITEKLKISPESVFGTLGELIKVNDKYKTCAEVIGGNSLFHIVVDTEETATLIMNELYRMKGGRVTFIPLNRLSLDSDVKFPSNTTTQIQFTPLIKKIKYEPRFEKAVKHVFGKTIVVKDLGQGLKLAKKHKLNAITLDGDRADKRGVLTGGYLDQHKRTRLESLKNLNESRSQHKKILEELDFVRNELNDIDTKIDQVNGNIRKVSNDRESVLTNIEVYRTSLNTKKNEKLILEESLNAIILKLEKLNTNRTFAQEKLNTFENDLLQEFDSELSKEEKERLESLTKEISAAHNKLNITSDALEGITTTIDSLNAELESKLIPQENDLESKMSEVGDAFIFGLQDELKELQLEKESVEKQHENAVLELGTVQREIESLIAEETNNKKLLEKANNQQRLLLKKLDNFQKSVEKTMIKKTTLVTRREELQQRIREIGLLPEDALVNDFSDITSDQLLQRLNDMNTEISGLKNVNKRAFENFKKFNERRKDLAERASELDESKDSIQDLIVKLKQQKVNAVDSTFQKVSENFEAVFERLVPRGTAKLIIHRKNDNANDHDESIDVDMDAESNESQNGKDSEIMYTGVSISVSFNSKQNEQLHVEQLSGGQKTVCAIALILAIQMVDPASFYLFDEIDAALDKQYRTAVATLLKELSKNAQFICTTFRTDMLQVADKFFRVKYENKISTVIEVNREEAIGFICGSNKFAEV

acetylated Smc3(R1222C) = molecular target: T2, acetylated Smc3(R1222C) (S. cerevisiae, UniProt P47037 1-1230, R1222C, acetylated, residues not given); assay: cross-linking
T2 sequence (looked up): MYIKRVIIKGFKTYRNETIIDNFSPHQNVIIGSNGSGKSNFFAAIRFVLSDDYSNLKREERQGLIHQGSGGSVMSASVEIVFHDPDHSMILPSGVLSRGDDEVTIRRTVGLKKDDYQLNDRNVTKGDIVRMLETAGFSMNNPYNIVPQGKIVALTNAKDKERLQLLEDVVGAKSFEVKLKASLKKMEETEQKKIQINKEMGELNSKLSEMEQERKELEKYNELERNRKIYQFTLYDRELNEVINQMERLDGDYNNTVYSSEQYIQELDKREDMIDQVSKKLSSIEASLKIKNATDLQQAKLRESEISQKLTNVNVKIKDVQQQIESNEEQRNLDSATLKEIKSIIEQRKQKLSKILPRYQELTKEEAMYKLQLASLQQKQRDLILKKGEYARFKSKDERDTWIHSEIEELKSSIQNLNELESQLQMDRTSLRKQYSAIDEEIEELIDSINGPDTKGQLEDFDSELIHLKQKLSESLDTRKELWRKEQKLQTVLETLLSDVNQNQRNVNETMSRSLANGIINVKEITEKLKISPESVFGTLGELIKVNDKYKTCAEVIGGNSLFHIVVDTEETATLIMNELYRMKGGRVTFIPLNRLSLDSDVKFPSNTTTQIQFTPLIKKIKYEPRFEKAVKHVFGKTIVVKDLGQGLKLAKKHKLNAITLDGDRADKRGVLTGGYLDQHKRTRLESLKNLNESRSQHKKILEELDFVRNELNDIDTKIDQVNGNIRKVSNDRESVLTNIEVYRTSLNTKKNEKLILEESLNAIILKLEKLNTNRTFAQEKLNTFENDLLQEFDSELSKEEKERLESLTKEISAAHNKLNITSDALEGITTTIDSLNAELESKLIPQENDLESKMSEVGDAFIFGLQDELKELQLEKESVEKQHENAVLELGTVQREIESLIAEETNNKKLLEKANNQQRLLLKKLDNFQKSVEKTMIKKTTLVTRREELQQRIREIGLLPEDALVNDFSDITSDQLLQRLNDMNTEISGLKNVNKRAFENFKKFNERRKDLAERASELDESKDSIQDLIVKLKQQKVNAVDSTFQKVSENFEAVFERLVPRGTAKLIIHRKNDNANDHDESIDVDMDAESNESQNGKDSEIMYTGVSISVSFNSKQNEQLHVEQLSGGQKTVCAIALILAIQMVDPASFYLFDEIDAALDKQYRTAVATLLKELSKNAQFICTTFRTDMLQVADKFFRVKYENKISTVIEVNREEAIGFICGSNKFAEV

B1: Smc1(N1192C)-HA6 (natural protein, S. cerevisiae, UniProt P32908 1-1225, looked up)
chain: MGRLVGLELSNFKSYRGVTKVGFGESNFTSIIGPNGSGKSNMMDAISFVLGVRSNHLRSNILKDLIYRGVLNDENSDDYDNEGAASSNPQSAYVKAFYQKGNKLVELMRIISRNGDTSYKIDGKTVSYKDYSIFLENENILIKAKNFLVFQGDVEQIAAQSPVELSRMFEEVSGSIQYKKEYEELKEKIEKLSKSATESIKNRRRIHGELKTYKEGINKNEEYRKQLDKKNELQKFQALWQLYHLEQQKEELTDKLSALNSEISSLKGKINNEMKSLQRSKSSFVKESAVISKQKSKLDYIFKDKEKLVSDLRLIKVPQQAAGKRISHIEKRIESLQKDLQRQKTYVERFETQLKVVTRSKEAFEEEIKQSARNYDKFKLNENDLKTYNCLHEKYLTEGGSILEEKIAVLNNDKREIQEELERFNKRADISKRRITEELSITGEKLDTQLNDLRVSLNEKNALHTERLHELKKLQSDIESANNQEYDLNFKLRETLVKIDDLSANQRETMKERKLRENIAMLKRFFPGVKGLVHDLCHPKKEKYGLAVSTILGKNFDSVIVENLTVAQECIAFLKKQRAGTASFIPLDTIETELPTLSLPDSQDYILSINAIDYEPEYEKAMQYVCGDSIICNTLNIAKDLKWKKGIRGKLVTIEGALIHKAGLMTGGISGDANNRWDKEEYQSLMSLKDKLLIQIDELSNGQRSNSIRAREVENSVSLLNSDIANLRTQVTQQKRSLDENRLEIKYHNDLIEKEIQPKITELKKKLDDLENTKDNLVKEKEALQNNIFKEFTSKIGFTIKEYENHSGELMRQQSKELQQLQKQILTVENKLQFETDRLSTTQRRYEKAQKDLENAQVEMKSLEEQEYAIEMKIGSIESKLEEHKNHLDELQKKFVTKQSELNSSEDILEDMNSNLQVLKRERDGIKEDIEKFDLERVTALKNCKISNINIPISSETTIDDLPISSTDNEAITISNSIDINYKGLPKKYKENNTDSARKELEQKIHEVEEILNELQPNARALERYDEAEGRFEVINNETEQLKAEEKKILNQFLKIKKKRKELFEKTFDYVSDHLDAIYRELTKNPNSNVELAGGNASLTIEDEDEPFNAGIKYHATPPLKRFKDMEYLSGGEKTVAALALLFAINSYQPSPFFVLDEVDAALDITNVQRIAAYIRRHRNPDLQFIVISLKCTMFEKSDALVGVYRQQQENSSKIITLDLSNYAE
cross-linking efficiency (Smc3(R1222C)): 41%
cross-linking efficiency (acetylated Smc3(R1222C)): 3%
